Measurements from article PMC3667823.

Target: Recombinant HSP with AVI and HIS tag (16 kDa heat shock protein of Mycobacterium tuberculosis) (Mycobacterium tuberculosis) (UniProt P9WMK1)
Test: native MS

Substance: Recombinant HSP with AVI and HIS tag (16 kDa heat shock protein of Mycobacterium tuberculosis) (from UniProt P9WMK1 1-144) (natural protein)
- stoichiometry N: 2
